Non-standard residues stand in square brackets, D forms with d. No end group written: not given here. 2Nal = N[C@@H](Cc1ccc2ccccc2c1)C(=O)O; Ahx = NCCCCCC(=O)O
Experiments:
[1] = target: fibrinogen (human plasma) (human) (UniProt P02671); experiment: affinity chromatography of 5 ml plasma on 0.8 ml peptide resin column
albumin (human plasma) = target: T1, albumin (human plasma) (human, UniProt P02768 25-609); experiment: affinity chromatography of fibrinogen- and Apo-A1-depleted plasma on peptide resin, 0.020 M sodium citrate; nephelometry
T1 construct: mature
Experimental: Fibrinogen and Apo-A1 lipoprotein-depleted plasma (prepared in Example 5) was loaded at a linear velocity of 30 cm/hour (0.4 ml/min; RT=5.1) onto 2.0 ml column (CF=0.785 cm²) that had been equilibrated with 0.14 M NaCl, 0.020 M sodium citrate, pH 7.0 (EQ buffer). After the column was washed with EQ buffer and 2.0 M NaCl, 0.020 M sodium citrate, pH 6.0, to baseline, the API protein was eluted with 2.0 M NaCl, 1% Tween 20, 0.020 M sodium citrate, pH 6.0. The column was regenerated with 2.0 M guanidine-HCl, 2% Sarkosyl and 2% acetic acid and stored in 20% methanol. […] Not all of the API was quantitatively eluted, but could be eluted using 2M guanidine. Purification of API protein to approximately 70% purity was accomplished with ligand HFVAPH (SEQ ID NO: 46) (isolated from an L-Library).

[2] = target: fibrinogen (human plasma) (human) (UniProt P02671); experiment: affinity chromatography of plasma on peptide resin, ligand density 0.67-0.94 mmol/g resin
[3] = target: fibrinogen (human plasma) (human) (UniProt P02671); experiment: affinity chromatography of plasma on peptide resin, Evaluation 2, load 51 mg; nephelometric fibrinogen antigen
[4] = target: fibrinogen (human plasma) (human) (UniProt P02671); experiment: affinity chromatography of plasma on peptide resin, Evaluation 1, load 51 mg; nephelometric fibrinogen antigen
[5] = target: fibrinogen (human plasma) (human) (UniProt P02671); experiment: affinity chromatography of plasma on peptide resin, Evaluation 2; nephelometric fibrinogen antigen
[6] = target: fibrinogen (human plasma) (human) (UniProt P02671); experiment: affinity chromatography of plasma on peptide resin, Evaluation 1; nephelometric fibrinogen antigen
[7] = target: vWF/fVIII complex (human plasma) (human) (UniProt P04275); experiment: batch binding of pooled human plasma to peptide resin, then column elution; fVIII chromogenic assay
[8] = target: vWF/fVIII complex (human plasma) (human) (UniProt P04275); experiment: batch binding of 20 ml pooled human plasma to 0.8 ml peptide resin, then column elution; load 21.4 IU; fVIII chromogenic assay
[9] = target: vWF/fVIII complex (human plasma) (human) (UniProt P04275); experiment: batch binding of pooled human plasma to peptide resin, then column elution; fVIII coagulation assay
[10] = target: vWF/fVIII complex (human plasma) (human) (UniProt P04275); experiment: batch binding of pooled human plasma to peptide resin, then column elution; load 8.46 IU; fVIII coagulation assay

HWQ (SEQ ID NO: 7) peptide attached to a chromatography resin
dynamic resin capacity [1]: 5 to 8 mg

HFVAPH (also: immobilised on resin via C-terminus, Immobilised on chromatography resin) [L-HFVAPH (SEQ ID NO: 46) peptide ligand displayed on resin]
binding result (albumin (human plasma)): no binding

[dA]RQFDF[Ahx] (also: D- prefix in name, which residues are D is not settled) [D-ARQFDF (SEQ ID NO: 20) peptide displayed on ToyoPearl AF-Amino 650 M resin]
dynamic resin capacity [2]: 6 to 8 g/L of resin
total fibrinogen in elution [3]: 54 mg
total fibrinogen in elution [4]: 46 mg
fibrinogen in flow thru + post wash [5]: < 0.15 mg/mL
recovery of fibrinogen in elution (%) [5]: 100%
fibrinogen in flow thru + post wash [6]: < 0.15 mg/mL
recovery of fibrinogen in elution (%) [6]: 91%

EAD[2Nal]ED (not fully specified (C-terminus)) [D-EADna2′ED (SEQ ID NO: 66) resin]
FVIII recovery in elution 1, 0.75 M NaCl (%), chromogenic assay [7]: 21.5%
FVIII recovery in elution 2, 1.0 M NaCl (%), chromogenic assay [7]: 0%
FVIII recovery in flow-through (%), chromogenic assay [7]: 7.5%
FVIII recovery in wash, 0.5 M NaCl (%), chromogenic assay [7]: 5.6%
total FVIII in elution 1, 0.75 M NaCl (IU), chromogenic assay [7]: 4.6 IU
total FVIII in elution 2, 1.0 M NaCl (IU), chromogenic assay [7]: 0 IU
total FVIII in wash, 0.5 M NaCl (IU), chromogenic assay [7]: 1.2 IU
total FVIII in flow-through (IU), chromogenic assay [8]: 1.6 IU
FVIII recovery in elution 1, 0.75 M NaCl (%), coagulation assay [9]: 46%
FVIII recovery in elution 2, 1.0 M NaCl (%), coagulation assay [9]: 0%
FVIII recovery in flow-through (%), coagulation assay [9]: 18.9%
FVIII recovery in wash, 0.5 M NaCl (%), coagulation assay [9]: 0%
total FVIII in elution 1, 0.75 M NaCl (IU), coagulation assay [9]: 3.9 IU
total FVIII in elution 2, 1.0 M NaCl (IU), coagulation assay [9]: 0 IU
total FVIII in wash, 0.5 M NaCl (IU), coagulation assay [9]: 0 IU
total FVIII in flow-through (IU), coagulation assay [10]: 1.6 IU

From patent US20030212253A1 (AMERICAN NATIONAL RED CROSS, published 2003)
